Where no end group is shown, it is not given here.
Key:
[1] = target: HCV protease (hepatitis C virus (HCV)); experiment: affinity of metallopeptide for HCV protease; method not described
[2] = target: Recombinant human somatic ACE (sACE-1: Leu30-Leu1261, with C-terminal His tag) (human) (UniProt P12821); experiment: affinity calculated from the IC50 of sACE-1 inhibition (fluorogenic substrate cleavage, 37 C, pH 7.4)
[3] = target: Recombinant human somatic ACE (sACE-1: Leu30-Leu1261, with C-terminal His tag) (human) (UniProt P12821); experiment: cell-based or functional assay

Recombinant human somatic ACE (sACE-1: Leu30-Leu1261, with C-terminal His tag) (human), sequence (P12821 30-1261 limits assumed): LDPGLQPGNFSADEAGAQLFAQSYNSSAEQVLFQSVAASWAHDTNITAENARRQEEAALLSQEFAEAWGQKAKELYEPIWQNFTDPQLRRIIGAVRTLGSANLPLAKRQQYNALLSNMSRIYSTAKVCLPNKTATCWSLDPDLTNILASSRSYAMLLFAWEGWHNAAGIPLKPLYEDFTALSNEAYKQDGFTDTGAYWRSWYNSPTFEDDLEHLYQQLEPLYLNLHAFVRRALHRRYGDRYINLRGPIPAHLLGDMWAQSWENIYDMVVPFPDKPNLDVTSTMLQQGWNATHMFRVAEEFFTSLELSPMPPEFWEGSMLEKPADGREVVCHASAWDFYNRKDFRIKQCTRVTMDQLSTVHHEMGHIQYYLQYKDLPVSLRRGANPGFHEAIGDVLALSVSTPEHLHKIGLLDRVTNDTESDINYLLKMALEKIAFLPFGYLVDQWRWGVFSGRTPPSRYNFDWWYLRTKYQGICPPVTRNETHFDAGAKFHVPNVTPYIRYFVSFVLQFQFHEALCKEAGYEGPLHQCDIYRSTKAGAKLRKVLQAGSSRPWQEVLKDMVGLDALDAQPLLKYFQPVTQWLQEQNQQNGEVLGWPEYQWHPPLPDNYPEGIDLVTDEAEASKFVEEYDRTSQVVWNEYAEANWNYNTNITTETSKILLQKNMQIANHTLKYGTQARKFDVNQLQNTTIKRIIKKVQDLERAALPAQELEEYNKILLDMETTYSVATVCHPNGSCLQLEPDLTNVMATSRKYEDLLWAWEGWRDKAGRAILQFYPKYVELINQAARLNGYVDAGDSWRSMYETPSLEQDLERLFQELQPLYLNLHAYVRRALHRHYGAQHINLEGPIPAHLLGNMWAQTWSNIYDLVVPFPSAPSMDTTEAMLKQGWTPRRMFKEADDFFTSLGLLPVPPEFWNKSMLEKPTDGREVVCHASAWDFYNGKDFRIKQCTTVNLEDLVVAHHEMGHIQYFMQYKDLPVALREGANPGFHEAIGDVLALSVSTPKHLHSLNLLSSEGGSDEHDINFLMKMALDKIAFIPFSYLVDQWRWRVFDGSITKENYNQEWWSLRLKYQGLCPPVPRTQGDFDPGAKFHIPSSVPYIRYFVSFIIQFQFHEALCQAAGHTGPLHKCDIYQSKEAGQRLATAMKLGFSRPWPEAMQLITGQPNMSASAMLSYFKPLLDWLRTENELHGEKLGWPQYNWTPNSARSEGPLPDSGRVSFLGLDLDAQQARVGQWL

Row | Substance | affinity [1] | Ka [2] | IC50's (nM) for sACE-1 inhibition (fluorogenic substrate cleavage) [3]
1 | GGHDEMEEC | 48 µM |  | 
2 | [Cu-GGH]^1- (peptide) |  | 59000 M⁻¹ | 17000 nM
